As usually defined, the Kd is the constant that tells how readily two partners part at equilibrium. In general, stoichiometry N refers to the number of molecules, sites or subunits per partner or assembly.

Results on two substances are retold here after paper PMC10570038.

One data set concerns the target RBPMS-A FL (rat) (UniProt A0A8I6G705). Nature of the data set: EMSA. The note with it: no binding in 0-6 uM; EMSA: 10 nM RNA, 25 mM HEPES pH 7.9, 100 mM KCl, 2 mM MgCl2, 0.625 mM DTT, 0.1 mg/ml BSA, 5% glycerol, 30 C 1 h, then 5 mg/ml heparin 10 min; 5% native PAGE in …. A general note: In EMSA bound probe runs differently from free probe, usually more slowly.
Data set [1] has as its target recombinant untagged rat RBPMS-A ΔC20 (rat). Nature of the data set: AUC; sedimentation velocity, 40 000 rpm, 20°C, 20 mM HEPES, 1 mM TCEP, pH 7.9, 500 mM KCl; FL and ΔC20 at equal molar concentration (0.46 and 0.57 mg/ml); continuous c(s) model.
Data set [2] has the same target. Nature of the data set: cross-linking; glycerol gradients supplemented with a glutaraldehyde cross-linker (GraFix).
Data set [3] shares this target. Briefly: AUC; sedimentation velocity, 40 000 rpm, 20°C, 20 mM HEPES, 1 mM TCEP, pH 7.9, 60 mM KCl; FL 0.7, 0.48, 0.24, 0.11 mg/ml; ΔC20 0.5 or 0.1 mg/ml; continuous c(s) model.
For data set [4] the target is unchanged. Nature of the data set: SEC; size exclusion chromatography of purified untagged recombinant protein; compared with size markers (443 kDa marker, void volume).

Where “and” joins values, the source holds several entries; their conditions need not be identical. Identical values can stand only once. A value given as a limit tells only on which side of the number the result lay.

Turning to “GUCUACGCACCCUCAACCCGCACCUUGCGGGAUG [(CAC)2]”, the Kd with RBPMS-A FL (rat) was greater than 6 µM.
On to “recombinant untagged rat RBPMS-A ΔC20 (domain or fragment)”, for which the stoichiometry N in data set [1] is 2; in data set [2], 3 and 4; in data set [3], 2 and 3; in data set [4] it was 2. Besides, the percent eluting as dimer in data set [4] came out at 96%.
